Assay results from US20250129173A1 (SHENYANG SUNSHINE PHARMACEUTICAL, published 2025).
Several values for one entry are separate records, joined by “and”; a condition that tells them apart may be missing. Equal values may be shown once. Values belong to the binder of their own block, whether it stands above or below them.

Key:
[1] = biological target: T1, human PRLR on the cell surface (T47D human breast cancer cells; BAF3-huPRLR cells) (human, UniProt P16471 25-622); assay: flow cytometry on T47D cells
T1 construct: whole, on cells; Used for both T47D (endogenous) and BAF3-huPRLR (stably overexpressing) cells; also called PRLR antigen on the surface of the T47D cell
T1 sequence (looked up): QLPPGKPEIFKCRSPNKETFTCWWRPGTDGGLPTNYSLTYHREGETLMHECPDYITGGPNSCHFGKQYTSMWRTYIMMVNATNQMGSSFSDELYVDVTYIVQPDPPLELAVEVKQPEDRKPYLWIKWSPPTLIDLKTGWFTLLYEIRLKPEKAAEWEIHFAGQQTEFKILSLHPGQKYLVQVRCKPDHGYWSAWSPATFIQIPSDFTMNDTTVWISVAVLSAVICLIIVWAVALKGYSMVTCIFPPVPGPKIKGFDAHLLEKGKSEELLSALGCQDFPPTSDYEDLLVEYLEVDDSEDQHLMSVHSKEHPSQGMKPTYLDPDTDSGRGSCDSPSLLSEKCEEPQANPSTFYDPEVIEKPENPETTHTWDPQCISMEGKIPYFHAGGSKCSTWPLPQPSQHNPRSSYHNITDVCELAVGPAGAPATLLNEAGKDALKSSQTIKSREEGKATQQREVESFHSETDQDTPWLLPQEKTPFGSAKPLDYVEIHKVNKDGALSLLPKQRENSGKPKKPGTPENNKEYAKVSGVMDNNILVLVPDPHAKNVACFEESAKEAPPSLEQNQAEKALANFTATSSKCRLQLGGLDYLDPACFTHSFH
Procedure: In this experiment, a human mammary ductal carcinoma cell T47D was used as a target cell, and SPGA02-260 was used as a primary antibody. SPGA02-260 was serially diluted from 20 μg/mL in six gradients according to a 6-fold gradient. An antibody diluted with a 100 μL gradient and 100 μL of a T47D cell were incubated for 30 min at room temperature (The cell was suspended in 100 μL of an RPMI-1640 serum-free medium (purchased from Gibco, item No.: 61870036). The maximum working concentration of a monoclonal antibody was 10 μg/mL). The cell was washed twice with PBS to remove unbound SPGA02-260. Then, the cell was incubated with 50 μL of anti-murine fluorescent secondary antibody containing 5 μg/mL Alexa Fluor 488 label (purchased from Thermo and Invitrogen, item No.: A11001) at 4° C. for 40 min under light protection. The cell was washed twice with PBS to remove an unbound secondary antibody. Finally, the cell was resuspended in 100 μL of PBS. The binding affinity of SPGA02-260 to the cells was determined by a flow cytometry (purchased from Beckman, model: CytoFLEX). Data obtained were fitted and analyzed by GraphPad Prism6 software.

[2] = biological target: T2, recombinant human PRLR-ECD protein (Acro, item No. PRR-H52Ha) (human, UniProt P16471 25-234); assay: indirect ELISA, coated human PRLR-ECD
T2 construct: Bought protein; also called PRLR-His
T2 sequence: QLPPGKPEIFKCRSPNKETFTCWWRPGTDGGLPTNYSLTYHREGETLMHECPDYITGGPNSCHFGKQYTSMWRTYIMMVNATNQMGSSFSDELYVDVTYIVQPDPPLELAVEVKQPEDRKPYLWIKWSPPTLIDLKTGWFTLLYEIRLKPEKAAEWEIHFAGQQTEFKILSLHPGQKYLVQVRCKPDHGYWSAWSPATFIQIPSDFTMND

[3] = biological target: T3, mouse PRLR protein (Beijing Sinobiological, item No. 50457-M08H) (mouse, UniProt Q08501 20-229); assay: indirect ELISA, coated mouse PRLR protein
T3 construct: Bought; also called murine-derived PRLR-ECD
T3 sequence (looked up): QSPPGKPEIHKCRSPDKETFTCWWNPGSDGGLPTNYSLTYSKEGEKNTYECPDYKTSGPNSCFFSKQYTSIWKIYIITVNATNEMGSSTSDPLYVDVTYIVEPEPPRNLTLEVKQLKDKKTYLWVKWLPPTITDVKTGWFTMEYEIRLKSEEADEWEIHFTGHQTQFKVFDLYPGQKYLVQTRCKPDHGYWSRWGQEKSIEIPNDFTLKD
Procedure: A mouse PRLR protein (purchased from Beijing Sinobiological Company, item No. 50457-M08H), i.e., mouse PRLR, was coated in a 96-well ELISA plate according to 0.5 μg/well. The cross-reactivity of SPGA02-ch18, and SPGA02-ch260 to the mouse PRLR was determined. Other specific experimental methods were referred to Embodiment 8.

[4] = biological target: T4, PRLR-ECD Fibronectin type-III 2 polypeptide 7 (189-208) (human, N-terminal biotin (bio-)); assay: peptide ELISA
T4 peptide: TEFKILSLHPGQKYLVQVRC

[5] = biological target: T2, recombinant human PRLR-ECD protein …; assay: indirect ELISA, coated human PRLR-ECD 0.5 µg/mL
Procedure: An indirect enzyme-linked immunosorbent assay was used to determine the binding ability of an murine-derived antibody to human PRLR as follows: diluting a recombinant human PRLR-ECD protein to 0.5 μg/mL with a coating solution (a phosphate coating buffer, pH 7.4), adding a solution to an enzyme-labeled plate with 100 μL/well, and coating the plate at 4° C. overnight. The plate was washed once with PBST. 300 μL/well of blocking solution (1% BSA-PBST) was added. The plate was incubated at 37° C. for 2 h and then washed three times with PBST. The purified antibody was diluted to 1 μg/mL with 1% BSA-PBST. After a solution was diluted with 1:3 gradient, the enzyme-labeled plate was added with 100 μL/well, and incubated at 37° C. for 1 h. The plate was washed with PBST 3 times. A HRP-labeled goat anti-mouse IgG secondary antibody (purchased from Abcam, item No.: ab6789) was added and incubate at 37° C. for 30 min. After the plate was washed 3 times with PBST, residual droplets were patted to be dry as much as possible with a blotting paper. 100 μL of TMB (purchased from KPL, item No.: 52-00-03) was added to each well, placed at room temperature (20±5° C.) and protected from light for 5 min. […] An OD value at 450 nm of an enzyme-labeled instrument was read to analyze the binding ability of the antibody to be tested to a target antigen PRLR-His.

[6] = biological target: T1, human PRLR on the cell surface (T47D …); assay: cell-based or functional assay

EC50 [1]: 0.21 nM and 0.031 µg/mL
EC50 [2]: 0.0129 µg/mL and 0.09 nM
EC50 [3]: 0.297 mg/L
B1: chimeric antibody SPGA02-ch260 (antibody, human IgG1, kappa, V domains shown)
VH: QVQLKESGPGLVAPSQSLSITCTVSGFSLTRNGVSWVRQPPGKGLEWLGIIWGDGSTNYHSALISRLSISKDNSKSQVFLKLNSLQTDDTATYYCAKEGLYYYGRYFDVWGAGTTVTVSS
VL: DIVMTQSHKFMSTSVGDRVSITCKASQDVGSAVAWYQQKPGQSPKVLIYWASTRHTGVPDRFTGSGSGTDFTLTISNVQSEDLADYFCQQYSNYPLTFGGGTKLEIRR
notes: Expressed in Expi293F cells; also called SPGA01-ch260

EC50 [1]: 0.026 µg/mL and 0.17 nM
binding result [4]: binds
EC50 [5]: 0.0209 µg/mL and 0.14 nM
B2: murine-derived anti-human PRLR monoclonal antibody SPGA02-260 (antibody, V domains shown)
VH: B1 VH
VL: DIVMTQSHKFMSTSVGDRVSITCKASQDVGSAVAWYQQKPGQSPKVLIYWASTRHTGVPDRFTGSGSGTDFTLTISNVQSEDLADYFCQQYSNYPLTFGGGTKLEIR
notes: Mouse monoclonal antibody purified from hybridoma supernatant by protein A; also called SPHA02-260

EC50 [2]: 0.00898 µg/mL and 0.06 nM
IC50 of inhibition of growth of BAF3-huPRLR cells (CCK8, 72 h) [6]: 8.28 ng/ml and 0.06 nM
B3: humanized monoclonal antibody SPGA02-hu260 (antibody, human IgG1, kappa, V domains shown)
VH: QVQLQESGPGLVKPSETLSLTCTVSGFSLTRNGVSWIRQPPGKGLEWVGVIWGDGSTNYNSAFMSRVTISVDTSKNQVSLKLSSVTAADTAVYYCAKEGLYYYGRYFDVWGQGTTVTVSS
VL: DIQMTQSPSSLSASVGDRVTITCRASQDVGSALAWYQQKPGKVPKLLIYWASTRHTGVPSRFSGSGSGTDFTLTISSLQPEDVATYYCQQYSNYPLTFGGGTKLEIKR
notes: Expressed in Expi-293F cells
